{"source": "the RNAGym collection of RNA variant scans (doi:10.7554/elife.90254)", "parents": {"B1": {"name": "OR4K15 (parent)", "chain": "GUUAACGGUCAUAGGCCAUGGAAACUAGGAGCACCAUUUCGCUGCCAGUGAAGAAAUGAACAAAGAAAAUCUGGGCCAGGCAGGCAUCAAAAGAAAUAGUCUUGCGCUCAACCAGAAAGUCUGUAAUCAUUUUAAGGGUA"}}}
{"variants_of": "B1", "assay": "self-cleavage, relative activity (ratio to wild type); higher = more cleavage; in vitro, sequencing; the parent is a self-cleaving ribozyme"}
{"variant": "U131A", "self-cleavage": 1.05}
{"variant": "A98U A118G", "self-cleavage": 1.83}
{"variant": "A64U A117G", "self-cleavage": 1.18}
{"variant": "A60C U100A", "self-cleavage": 0.68}
{"variant": "A52G A110C", "self-cleavage": 0.26}
{"variant": "A95G U120A", "self-cleavage": 2.78}
{"variant": "A22G U124A", "self-cleavage": 1.29}
{"variant": "A54U A117G", "self-cleavage": 1.63}
{"variant": "U57C U100A", "self-cleavage": 0.4}
{"variant": "U49A A98G", "self-cleavage": 0.44}
{"variant": "A95G A111G", "self-cleavage": 0.03}
{"variant": "A114G A118G", "self-cleavage": 0.36}
{"variant": "G31A U122C", "self-cleavage": 2.04}
{"variant": "A66U U124C", "self-cleavage": 1.25}
{"variant": "C77A U131C", "self-cleavage": 0.5}
{"variant": "A89G U130C", "self-cleavage": 1.79}
{"variant": "A27G A59U", "self-cleavage": 1.24}
{"variant": "A59G U130G", "self-cleavage": 1.62}
{"variant": "U57G U120C", "self-cleavage": 1.11}
{"variant": "A11G G74U", "self-cleavage": 0.24}
{"variant": "U43C A98U", "self-cleavage": 1.68}
{"variant": "U103C U127A", "self-cleavage": 1.27}
{"variant": "A92G A94G", "self-cleavage": 1.49}
{"variant": "C121A A140G", "self-cleavage": 1.61}
{"variant": "A62U U100C", "self-cleavage": 2.34}
{"variant": "U49C A134G", "self-cleavage": 1.38}
{"variant": "A5G G137U", "self-cleavage": 1.62}
{"variant": "A64G A129G", "self-cleavage": 1.14}
{"variant": "U9C A55G", "self-cleavage": 1.28}
{"variant": "U97C U120A", "self-cleavage": 0.31}
{"variant": "G79A A98U", "self-cleavage": 0.13}
{"variant": "U3C A89U", "self-cleavage": 0.54}
{"variant": "C107U A118G", "self-cleavage": 0}
{"variant": "A13G G65A", "self-cleavage": 1.2}
{"variant": "G7U U38C", "self-cleavage": 0.4}
{"variant": "G115A U124C", "self-cleavage": 0.05}
{"variant": "A30U U108C", "self-cleavage": 0.02}
{"variant": "A27U A90G", "self-cleavage": 0.74}
{"variant": "C40U A69G", "self-cleavage": 0.94}
{"variant": "A55G U102C", "self-cleavage": 1.75}
{"variant": "U37C U49C", "self-cleavage": 1.71}
{"variant": "G7U A118G", "self-cleavage": 1.38}
{"variant": "A24C A68G", "self-cleavage": 1.52}
{"variant": "U9A A54G", "self-cleavage": 1.42}
{"variant": "A51G U130C", "self-cleavage": 0.54}
{"variant": "A24G U108C", "self-cleavage": 0.03}
{"variant": "A13G A36U", "self-cleavage": 0.67}
{"variant": "U39C A95U", "self-cleavage": 1.78}
{"variant": "A18G U19A", "self-cleavage": 1.57}
{"variant": "C128U A140U", "self-cleavage": 2.45}
{"variant": "G21C A68G", "self-cleavage": 2.19}
{"variant": "U2C A78U", "self-cleavage": 0.09}
{"variant": "A68G U132C", "self-cleavage": 1.38}
{"variant": "U122C U130C", "self-cleavage": 0.64}
{"variant": "U2C U49A", "self-cleavage": 1.5}
{"variant": "U100G U108A", "self-cleavage": 0.02}
{"variant": "U19A A68G", "self-cleavage": 1.64}
{"variant": "A54U U72C", "self-cleavage": 0.09}
{"variant": "G75C A140G", "self-cleavage": 0.15}
{"variant": "A30G U38G", "self-cleavage": 1.4}
{"variant": "U70C A114G", "self-cleavage": 0.12}
{"variant": "A4G A11G", "self-cleavage": 0.86}
{"variant": "U9A A24U", "self-cleavage": 2.1}
{"variant": "A22G A59G", "self-cleavage": 1.07}
{"variant": "A5G A18G", "self-cleavage": 0.8}
{"variant": "U26C A118G", "self-cleavage": 2.14}
{"variant": "U87A A89G", "self-cleavage": 0.91}
{"variant": "C81U A86G", "self-cleavage": 0.17}
{"variant": "U9A U70C", "self-cleavage": 1.07}
{"variant": "C85G A125G", "self-cleavage": 0.55}
{"variant": "A36G U108C", "self-cleavage": 0.01}
{"variant": "A67C A89U", "self-cleavage": 2.57}
{"variant": "A27G G104A", "self-cleavage": 0.02}
{"variant": "C40U U100C", "self-cleavage": 1.83}
{"variant": "G80A U130C", "self-cleavage": 0.08}
{"variant": "G21A U132A", "self-cleavage": 1.94}
{"variant": "U100A U131C", "self-cleavage": 0.36}
{"variant": "A60G A94U", "self-cleavage": 2.32}
{"variant": "A55G A126C", "self-cleavage": 0.18}
{"variant": "U9A U124C", "self-cleavage": 0.91}
{"variant": "A5G U37A", "self-cleavage": 1.3}
{"variant": "A91G U132A", "self-cleavage": 0.69}
{"variant": "A11G G58U", "self-cleavage": 0.79}
{"variant": "A82U A89G", "self-cleavage": 0.1}
